Test results from the supplement of paper PMC10567573.

B1: PRPH (parent)
chain: DEIEFLKKLHEEELRDLQVSVESQ

Variants of: B1
Test: protein stability index of a GFP-peptide fusion (GPS, HEK-293T) (PSI 1-6); higher = more stable
Conditions: c terminus: a fixed tail appended
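Also: lentivirally expressed fusions sorted by FACS into six bins by GFP to DsRed ratio, PSI derived from sequencing read proportions per bin multiplied by bin number.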

Protein stability index of substitutions, site by site:
E11: C 4.09 | P 4.34 | F 3.69 | K 4.92 | V 3.99 | S 4.52 | T 4.46 | I 4.01 | Q 4.08 | L 4.11 | G 4.95 | W 3.21 | Y 2.95 | H 4.42 | D 4.94 | R 4.23 | N 4.57 | A 4.29 | M 3.99
L17: I 4.97 | H 4.6 | R 5.06 | Q 5.15 | N 4.45 | E 4.98 | G 5.21 | K 4.81 | A 5.15 | P 5.16 | C 4.92 | V 5.02 | W 4.8 | F 4.69 | Y 3.39 | S 4.9 | T 5.06 | M 4.97 | D 5.25
D16: V 4.34 | G 4.95 | M 3.9 | P 4.59 | Y 3.49 | E 4.31 | H 4.67 | F 3.1 | W 3.15 | N 4.2 | Q 4.35 | S 5.14 | T 4.72 | A 4.6 | I 3.82 | R 3.96 | L 2.97 | K 4.94 | C 4.28
K8: L 4.32 | F 3.94 | H 4.63 | I 4.35 | A 5.1 | M 4.25 | C 3.8 | D 4.89 | S 4.15 | Y 4.23 | N 4.84 | E 4.37 | T 4.78 | Q 4.98 | P 5.23 | R 4.61 | V 4.06 | W 3.45 | G 4.55
E22: R 4.3 | A 4.47 | Y 3.75 | H 4.5 | T 4.72 | V 4.18 | K 4.69 | W 3.29 | D 4.99 | I 3.29 | C 4.93 | N 4.48 | G 4.3 | M 4.27 | P 5.25 | F 3.38 | Q 4.37 | S 4.74 | L 3.88
L9: W 4.38 | Q 4.98 | Y 4.44 | F 4.65 | M 4.82 | N 5.34 | P 5.52 | S 5.4 | K 5.49 | E 5.05 | C 4.9 | V 5.01 | R 5.29 | D 5.27 | I 4.88 | G 5.58 | H 5.29 | T 5.3 | A 5.02
V19: M 4.76 | F 4.39 | G 5.15 | I 5.18 | R 5.06 | P 4.93 | E 5 | W 5.12 | Q 5.01 | T 5.19 | S 4.6 | Y 4.56 | A 5.23 | N 4.87 | L 4.85 | K 5 | C 5.23 | D 5.58 | H 5.27
S20: L 4.2 | C 5.06 | W 4.45 | R 5.1 | P 4.96 | E 5.75 | M 4.81 | A 4.78 | Q 4.86 | T 4.87 | H 4.91 | V 4.88 | N 4.83 | K 4.75 | D 4.54 | G 4.29 | Y 4.45 | F 3.97 | I 4.27
V21: Q 4.39 | A 5.45 | C 4.98 | S 4.75 | W 4.36 | F 4.43 | M 4.45 | L 4.71 | G 4.92 | P 4.95 | T 4.96 | H 5.09 | E 5.81 | I 4.13 | R 4.39 | Y 4.07 | D 5.43 | N 5.29 | K 5.06
R15: L 4.38 | H 4.39 | F 4.15 | P 4.98 | D 5.45 | V 4.94 | G 4.28 | M 4.58 | T 4.51 | Y 4.58 | W 3.91 | A 5.18 | I 4.79 | K 4.59 | S 4.8 | E 4.83 | Q 4.66 | C 4.53 | N 4.91
Q18: F 3.36 | R 4.62 | C 4.86 | M 4.37 | Y 4.21 | I 4.4 | T 5.36 | H 4.69 | A 4.46 | V 4.38 | E 4.81 | P 5.3 | G 5 | W 3.39 | K 4.63 | D 5.27 | S 5.08 | L 3.89 | N 5.11
L14: Q 4.84 | F 4.24 | Y 4.6 | C 5.18 | V 5.27 | I 4.66 | K 4.92 | E 4.85 | T 5.78 | W 4.38 | M 5.02 | N 5.08 | P 4.71 | G 5.14 | D 5.57 | A 4.95 | H 5.31 | R 5.22 | S 5.18
F5: W 4.42 | V 4.95 | Y 4.58 | T 5.1 | R 4.79 | S 5.07 | Q 5.41
L6: R 4.91 | E 5.18 | T 5.13 | I 4.97 | M 4.89 | D 5.56 | Y 4.72 | S 5.12 | V 4.46 | N 5.61 | K 4.99 | W 4.61 | Q 5.54 | H 5.21 | P 5.33 | C 5.09 | A 5.48 | F 4.42 | G 5.07
E13: T 4.05 | Q 4.65 | R 4.42 | D 4.97 | H 4.45 | I 2.74 | Y 3.95 | G 4.83 | M 3.46 | K 5.25 | C 3.59 | P 5.05 | V 3.73 | S 4.16 | F 2.85 | L 3.27 | N 4.97 | A 3.9
K7: R 4.59 | T 3.15 | D 5.06 | N 5.18 | M 3.07 | G 4.52 | L 2.37 | H 4.21 | V 2.59 | P 5.04 | A 4.11 | W 1.96 | E 4.83 | Q 4.61 | Y 2.42 | F 2.11 | I 2.03 | S 3.85 | C 2.85
E12: T 4.43 | M 4.33 | D 4.41 | S 4.67 | Q 4.53 | C 4.54 | R 4.8 | K 4.82 | W 4.12 | N 4.5 | P 4.77 | H 4.64 | I 4.05 | L 4.04 | F 4.07 | V 4.1 | G 4.19 | Y 4.07 | A 4.69
H10: K 4.78 | G 4.64 | P 5.1 | Y 4.18 | C 4.56 | R 4.87 | Q 5.03 | L 2.52 | S 5.18 | N 4.16 | E 5.23 | F 3.47 | I 3.37 | T 4.95 | V 3.52 | M 3.88 | A 4.42 | D 5.25 | W 3.54
S23: E 4.67 | F 4.36 | D 5.04 | C 4.55 | A 4.04
